What all share (test): cell-based or functional assay
Experiment [1] concerns the target HIV-1 Env of isolate MGRM-A-005 (clade A pseudovirus) (HIV-1).
Experiment [2] deals with HIV-1 Env of isolate 94KE105 (listed under clade A; pseudovirus) (HIV-1).
The target of experiment [3] is HIV-1 MGRM-AE-004 Env (pseudovirus) (HIV-1).
The target of experiment [4] is HIV-1 MGRM-AE-008 Env (pseudovirus) (HIV-1).
Experiment [5] addresses HIV-1 MGRM-AG-006 Env (pseudovirus) (HIV-1).
Experiment [6] addresses HIV-1 Env of isolate MGRM-D-029 (clade D pseudovirus) (HIV-1).
Experiment [7] has as its target HIV-1 envelope glycoprotein (Env) of isolate MGRM-C-001 (HIV-1).
In experiment [8] the target is HIV-1 APV-17 envelope (Env) on pseudovirus (HIV-1).
Experiment [9] addresses HIV-1 envelope glycoprotein (Env) of isolate MGRM-C-007 (HIV-1).
Experiment [10] concerns the target HIV-1 envelope glycoprotein (Env) of isolate LAVI_C3 (HIV-1).
The target of experiment [11] is HIV-1 Env of isolate THR0.18 (Acute), clade B (HIV-1).
The target in experiment [12] is HIV-1 Env of pseudovirus MGRM-F1-022 (clade F) (HIV-1).
For experiment [13], the target named is HIV-1 Env of isolate MGRM-F1-022 (HIV-1).
In experiment [14] the target is HIV-1 Env of isolate MGRM-AE-005 (subtype AE) (HIV-1).
Experiment [15] deals with HIV-1 Env of isolate MGRM-A-002 (pseudovirus) (HIV-1).
The target in experiment [16] is HIV-1 JR-CSF Env P313A (HIV-1 (isolate JR-CSF, clade B)) (UniProt P20871).
The target in experiment [17] is HIV-1 Env of pseudovirus isolate MGRM-C-022 (clade C) (HIV-1).
Experiment [18] concerns the target HIV-1 Env of isolate MGRM-D-004 (pseudovirus) (HIV-1).
Experiment [19] deals with HIV-1 Env of isolate MGRM-Chronic-B-003 (HIV-1).
The target of experiment [20] is HIV-1 Env of isolate MGRM-AG-003 (subtype AG) (HIV-1).
For experiment [21], the target named is HIV-1 JR-CSF Env K421A (HIV-1 (isolate JR-CSF)) (UniProt P20871).
For experiment [22], the target named is HIV-1 Env of isolate MGRM-F1-023 (HIV-1).
Experiment [23] concerns the target HIV-1 Env of isolate VLGCA1 (subtype A) (HIV-1).
In experiment [24] the target is HIV-1 Env of isolate 94KE105 (subtype AC) (HIV-1).
In experiment [25] the target is HIV-1 Env of isolate MGRM-AE-003 (subtype AE) (HIV-1).
For experiment [26], the target named is HIV-1 Env of isolate MGRM-Chronic-B-008 (HIV-1).
The target of experiment [27] is HIV-1 Env of isolate MGRM-A-009 (subtype A) (HIV-1).
For experiment [28], the target named is HIV-1 Env of isolate 98CN006 (pseudovirus) (HIV-1).
Experiment [29] deals with HIV-1 Env of isolate MGRM-AG-012 (subtype AG) (HIV-1).
Experiment [30] concerns the target HIV-1 93IN905 Env (HIV-1).
The target of experiment [31] is HIV-1 94UG103 Env (HIV-1).
Experiment [32] concerns the target HIV-1 envelope glycoprotein (Env) of isolate TRJO4551.58, on pseudovirus (HIV-1).
In experiment [33] the target is HIV-1 envelope glycoprotein (Env) of isolate QH0692.42, on pseudovirus (HIV-1).
The target of experiment [34] is HIV-1 envelope glycoprotein (Env) of isolate MG RM-A-014, subtype A (HIV-1).
Experiment [35] has as its target HIV-1 Env of isolate MGRM-AG-002 (pseudovirus) (HIV-1).
For experiment [36], the target named is HIV-1 Env of isolate MGRM-AE-007 (pseudovirus) (HIV-1).
Experiment [37] addresses HIV-1 envelope glycoprotein (Env) of isolate MGRM-Chronic-B-001, on pseudovirus (HIV-1).

A value given as a limit tells only on which side of the number the result lay.

As a reminder, the IC50 is the concentration that gives 50% inhibition. The low end stands for greater potency, the high end for weaker potency.

On to 2G12 (antibody), for which the IC50 (µg/ml), pseudovirus neutralization in experiment [1] is greater than 50 µg/mL; in experiment [2], 7.22 µg/mL; in [3], greater than 50 µg/mL; in experiment [4] it was greater than 50 µg/mL; in experiment [5], 3.92 µg/mL; in experiment [7] it was 2.93 µg/mL. The IC50 (µg/ml), pseudovirus neutralization in experiment [9], in experiment [10] and in experiment [11] was greater than 50 µg/mL each time. Further, the IC50, pseudovirus neutralization in experiment [6] is greater than 50 µg/mL. Further, the neutralization IC50 in [8] was greater than 50 µg/mL. In experiment [12], this substance showed an IC50 greater than 50 µg/mL.

With b12 (antibody), the IC50 (µg/ml), pseudovirus neutralization in experiment [1] was 3.64 µg/mL; in experiment [2], greater than 50 µg/mL; in experiment [3], greater than 50 µg/mL; in experiment [4] it was greater than 50 µg/mL; in experiment [5], greater than 50 µg/mL; in experiment [7] it was greater than 50 µg/mL. The IC50 (µg/ml), pseudovirus neutralization in experiment [9] is greater than 50 µg/mL; in experiment [10], 0.94 µg/mL; in [11], 3.62 µg/mL. For the same substance, the IC50, pseudovirus neutralization in experiment [6] is greater than 50 µg/mL. Moreover, the neutralization IC50 in [8] was greater than 25 µg/mL. In addition, in experiment [12], the IC50 was greater than 50 µg/mL.

On to 1495_C14 (PGC14) (antibody), for which the IC50 (µg/ml), pseudovirus neutralization in [1], in [2], in [3], in experiment [4], in experiment [5] and in [7] was greater than 50 µg/mL each time. For the same substance, the figures for the IC50 (µg/ml), pseudovirus neutralization in experiment [9], in experiment [10] and in experiment [11] were greater than 50 µg/mL, 12 µg/mL and greater than 50 µg/mL, respectively. For the same substance, in experiment [6], the IC50, pseudovirus neutralization was greater than 50 µg/mL. In experiment [8], this substance showed a neutralization IC50 greater than 50 µg/mL. This substance also returned an IC50 in experiment [12] greater than 50 µg/mL.

On to 5136_H01 (PGT-131) (antibody), for which the IC50 (µg/mL), pseudovirus neutralization in experiment [13] is greater than 50 µg/mL; in [15], greater than 50 µg/mL; in experiment [18], 2.01 µg/mL; in experiment [19], greater than 50 µg/mL; in experiment [22], greater than 50 µg/mL; in experiment [26], greater than 50 µg/mL. Also, in experiment [28], the IC50 (µg/mL), pseudovirus neutralization was 35.3 µg/mL. Further, the IC50, pseudovirus neutralization in experiment [14] was 0.017 µg/mL; in [17], 0.78 µg/mL; in experiment [20], 2.92 µg/mL; in [23], greater than 50 µg/mL; in [24], 0.013 µg/mL; in experiment [25], 1.41 µg/mL. The IC50, pseudovirus neutralization was 0.035 µg/mL in [27] and greater than 50 µg/mL in experiment [29]. In experiment [16], this substance had a Fold IC50 increase relative to wild-type of 0.52 fold. The same substance showed a Fold IC50 increase relative to wild-type (pseudovirus neutralization) in experiment [21] of 11 fold.

For the substance 4E10 (antibody), the IC50 (µg/ml), pseudovirus neutralization was determined as 4.09 µg/mL in experiment [1]; 7.63 µg/mL in experiment [2]; 1.27 µg/mL in experiment [3]; 0.94 µg/mL in experiment [4]; 1.76 µg/mL in experiment [5]; 5.66 µg/mL in [7]. Moreover, the values for the IC50 (µg/ml), pseudovirus neutralization in [9], in experiment [10] and in experiment [11] were 5.84 µg/mL, 2.85 µg/mL and 4.68 µg/mL, respectively. Further, the IC50, pseudovirus neutralization in [6] was determined as 5.3 µg/mL. The substance also came in with a neutralization IC50 in [8] of 5.1 µg/mL. The substance also displayed an IC50 in experiment [12] of 1.01 µg/mL.

As to 1443_C16 (PG16) (TCN-116) (antibody), the IC50 (µg/ml), pseudovirus neutralization in experiment [1] is 0.09 µg/mL; in [2], 6.13 µg/mL; in experiment [3], 0.002 µg/mL; in experiment [4], 3.25 µg/mL; in experiment [5], greater than 50 µg/mL; in [7] it was 16.8 µg/mL. For the same substance, the IC50 (µg/ml), pseudovirus neutralization in [9] turned out to be 0.05 µg/mL; in [10], 9.55 µg/mL; in experiment [11], 1.34 µg/mL. Moreover, in [6], the IC50, pseudovirus neutralization is greater than 50 µg/mL. Moreover, the neutralization IC50 in experiment [8] is greater than 50 µg/mL. Further, the IC50 in experiment [12] was determined as 0.08 µg/mL.

For the substance 2F5 (antibody), the IC50 (µg/ml), pseudovirus neutralization is 5.7 µg/mL in experiment [1]; greater than 50 µg/mL in [2]; 0.98 µg/mL in experiment [3]; greater than 50 µg/mL in experiment [4]; 0.85 µg/mL in [5]; greater than 50 µg/mL in [7]. For the same substance, the IC50 (µg/ml), pseudovirus neutralization in experiment [9], in experiment [10] and in [11] was greater than 50 µg/mL throughout. The IC50, pseudovirus neutralization in experiment [6] is greater than 50 µg/mL. In addition, in experiment [8], the neutralization IC50 was determined as 2 µg/mL. In experiment [12], this substance returned an IC50 of 1.26 µg/mL.

Take 5147_N06 (PGT-130) (antibody): the IC50 (µg/mL), pseudovirus neutralization was greater than 50 µg/mL in experiment [13]; 0.01 µg/mL in experiment [15]; 1.21 µg/mL in experiment [18]; greater than 50 µg/mL in [19]; 0.05 µg/mL in experiment [22]; 5.18 µg/mL in [26]. Moreover, the IC50 (µg/mL), pseudovirus neutralization in experiment [28] is 0.258 µg/mL. For the same substance, the IC50, pseudovirus neutralization is 0.006 µg/mL in experiment [14]; 0.0182 µg/mL in experiment [30]; 0.127 µg/mL in [17]; 0.041 µg/mL in experiment [20]; greater than 50 µg/mL in experiment [23]; 0.004 µg/mL in experiment [24]. Also, the IC50, pseudovirus neutralization is 0.635 µg/mL in experiment [31], 0.337 µg/mL in experiment [25], 0.308 µg/mL in experiment [27] and greater than 50 µg/mL in [29]. This substance also came in with a Fold IC50 increase relative to wild-type in experiment [16] of 0.3 fold. This substance also gave a Fold IC50 increase relative to wild-type (pseudovirus neutralization) in experiment [21] of 2.9 fold.

As to 5123_A06 (PGT-125) (antibody), the IC50, pseudovirus neutralization in experiment [32] was 0.019 µg/mL; in experiment [33] it was 0.048 µg/mL; in experiment [30], 0.0137 µg/mL; in experiment [34] it was 13.9 µg/mL; in experiment [31], 0.0124 µg/mL; in experiment [37], greater than 50 µg/mL. The Fold IC50 increase relative to wild-type in experiment [16] was determined as 0.3 fold. In experiment [21], the Fold IC50 increase relative to wild-type (pseudovirus neutralization) turned out to be 1.2 fold. For the same substance, the IC50 (µg/mL), pseudovirus neutralization in [35] is greater than 50 µg/mL; in [36] it was 0.876 µg/mL.

For the origin of these results see patent publication US20240132578A1.
